Changes are numbered by the printed parent chain. Names may count otherwise.
B1: F11: variant combining cell wall binding domain mutations with Flex 9 (or derivative) catalytic domain (Table 22) (protein)
chain: AATHEHSAQWLGNYKKGYGYGPYPLGINGGMHYGVDFFMNEGTPVKAISSGKIVEAGWSNYGGGNQIGLIENDGVHRQWYMHMSKYNVKVGDYVEAGQQIGWSGSTGYSTAPHLHFQRMVGDFGNPTAQDPMPFLKSAGYGKAGGTVTPTPNTGWKTNKHGTLYKSESGSFTPNTDIITRTTGPFTSMPQSGVLKAGQTIHYDEVMKQDGHVWVGYTGNSGQRIYLPVRTWQKSTNTLGVLWGTIK
B2: F13: variant combining cell wall binding domain mutations with Flex 9 (or derivative) catalytic domain (Table 22) (protein)
chain: B1 chain with S166N, N236D
B3: Flex 5: lysostaphin variant K46H, I99Q, N121G, S122D (protein, UniProt P10547 248-493, looked up, variant K46H I99Q N121G S122D)
Lysostaphin: AATHEHSAQWLNNYKKGYGYGPYPLGINGGMHYGVDFFMNIGTPVHAISSGKIVEAGWSNYGGGNQIGLIENDGVHRQWYMHLSKYNVKVGDYVKAGQQIGWSGSTGYSTAPHLHFQRMVGDFSNSTAQDPMPFLKSAGYGKAGGTVTPTPNTGWKTNKYGTLYKSESASFTPNTDIITRTTGPFRSMPQSGVLKAGQTIHYDEVMKQDGHVWVGYTGNSGQRIYLPVRTWNKSTNTLGVLWGTIK

Columns and labels:
MRSA strain USA400 [1] = assay: In vitro inhibitory activity (MIC); assay type: cell-based, Staphylococcus aureus
Description: F11, P12 and F13 were screened for in vitro inhibitory activity against MRSA strain USA400 (FIG. 7).

MRSA strain USA400 [2] = assay: In vivo efficacy of F11, intraperitoneal MRSA challenge; design: species or system C57BL/6 mice; details: 100 μg single bolus i.v. 1 h after 2×10^8 MRSA i.p.
Experimental: Mice were challenged with an intraperitoneal injection of 2×10^8 MRSA strain USA400, and 1 hour later the mice were treated with 100 μg wild-type LST, F11 or PBS. The percent survival is shown.
The in vivo efficacy of the F11 variant was further analyzed in C57BL/6 mice. Mice were challenged with an intraperitoneal injection of 2×10^8 MRSA strain USA400, and 1 hour later the mice were treated with 100 μg wild-type LST, F11 or PBS, administered as a single bolus intravenous injection. The survival rate for both protein treatments was 1/3. The 100 μg dosage was selected because wild-type LST is known to be only partially efficacious at this dose.

MRSA strain USA400 [3] = assay: Efficacy of F13 in immunized mice, MRSA challenge; assay type: in vivo, DR4 HLA transgenic mice; details: 500 μg i.v. 1 h after 2×10^8 MRSA i.p.
Experimental: (§1) The immunogenicity of the F13 variant was compared to wild-type LST in DR4 HLA transgenic mice, i.e., mice bearing partially humanized immune systems. 100 μg of wild-type LST or variant F13 were mixed with complete Freund's adjuvant and injected subcutaneously into DR4 mice. Fourteen days later, antibody titers were measured by ELISA. Variant F13 yielded more than 200-fold lower antibody titers compared to wild-type LST. To assess the impact of antibody titers on antibacterial efficacy, the mice were challenged with an intraperitoneal injection of 2×10^8 MRSA strain USA400, and 1 hour later the mice were treated with 500 μg wild-type LST, variant F13, or PBS, administered as a single bolus intravenous injection. Both mice receiving PBS sham treatments died as did both mice treated with wild-type LST. In contrast, both mice treated with variant F13 survived. Thus, the reduced immunogenicity of F13 conferred enhanced therapeutic efficacy in vivo.

[4] = Immunogenicity of F13, antibody titers by ELISA (CFA); assay type: in vivo, DR4 HLA transgenic mice; details: 100 μg s.c. in CFA, fourteen days
Experimental: as §1

S. aureus 6445 = assay: MIC assay; assay type: cell-based, Staphylococcus aureus; details: biological duplicates
pooled splenocytes [5] = details: mouse, in vivo
Description: HUMI mice were constructed by surgical transplantation of human bone marrow, liver, and thymus tissues into NOD/SCID/γc^−/− mice (Dartmouth Transgenics & Genetic Constructs Shared Resource) as described (Brainard, et al. (2009) J. Virol. 83:7305-21). All animals were humanized from the same human donor. Mice used experimentally had human lymphocytes as a minimum of 25% of their total peripheral blood leukocytes. Fourteen weeks post-engraftment, 12 female HUMI mice were divided into 3 groups of 4 each and immunized with a single 50 μl subcutaneous injection of 100 μg wild-type LST, 100 μg variant Flex 5, or 100 μg variant Flex 9 in complete Freund's adjuvant (CFA). Two weeks following the immunization, mice were sacrificed and splenocytes were harvested and pooled for each group. Pooled splenocytes (5×10^5/well) were plated in triplicate into 96-well plates with medium containing 5% fetal calf serum, 1-glutamine, antibiotics, and a final concentration of 10 μg/ml LST or variants (or 1% DMSO as a control). […]
In vivo immunogenicity was evaluated using NOD/SCID/γc^−/− mice that had been surgically humanized with human immune cells, liver tissue, and thymus tissue (HUMI mice). […] Cell proliferation was measured by tritiated thymidine uptake at 72 hours.

S. aureus 3425-1 = assay: MIC assay; assay type: cell-based, Staphylococcus aureus; details: biological duplicates
Experimental: (§2) The MICs of wild-type lysostaphin and its variants were determined by adding 2-fold serial dilutions of enzymes into wells of a polypropylene 96-well plate (Costar 3879) containing ˜40,000 S. aureus SA113 (or S. aureus 6445, 3425-1, 3425-3) cells in Muller Hinton broth (BD) supplemented with 2% NaCl and 0.1% bovine serum albumin, yielding a total volume of 100 μl. Plates were grown overnight at 37° C. with shaking at 900 rpm on an Orbit P4 orbital shaker (Labnet; Edison, N.J.). […] The assay was performed in triplicate for each enzyme.

MRSA strain 3425-3 = assay: MIC assay; assay type: cell-based, Staphylococcus aureus; details: biological duplicates
Experimental: as §2

S. aureus SA113 = assay: MIC assay; assay type: cell-based, Staphylococcus aureus
Experimental: as §2

[6] = Thermostability by differential scanning fluorimetry; assay type: physicochemical
Experimental: The relative thermostability of the lysostaphin variants was determined by differential scanning fluorimetry, as previously described (Niesen, et al. (2007) Nat. Protocols 2:2212-2221). Proteins and SYPRO Orange were diluted in PBS (final concentrations of 100 μg/ml and 5× in 20 μl reaction volume, respectively), and fluorescence was quantified at 1-degree increments from 25 to 94° C. using an Applied Biosystems ABI 7500 fast real-time PCR system. The reactions were performed using PCR Plates for Fast Thermocyclers (VWR; Radnor, Pa.). Fluorescence was quantified using the preset TAMRA parameters. Melting temperatures were determined by data analysis with the ‘DSF Analysis v3.0.xlsx’ EXCEL sheet and GraphPad Prism v.6.02 software.

pooled splenocytes [7] = assay: Transgenic DR4 murine immunogenicity study (memory response, splenocyte proliferation); assay type: in vivo; details: wild-type LST primed mice, 100 μg rechallenge
Experimental: Twelve female 6-8 week old DR4 transgenic mice (Abb Knockout/Transgenic HLA-DR4; B6.129S2-H2-Ab1tm1GruTg(HLA-DRA/H2-Ea,HLA-DRB1*0401/H2-Eb)1Kito; Taconic Farms, Germantown, N.Y.) were divided into four groups of three each and immunized with 50 μl subcutaneous injections of wild-type LST using one of the following four schemes: (i) initial immunization with 100 μg enzyme in CFA, followed by 100 μg boosts in incomplete Freund's adjuvant (IFA) on days 14 and 28; (ii) initial immunization with 20 μg enzyme in CFA, followed by 20 μg boosts in IFA on days 14 and 28; (iii) initial immunization with 100 μg enzyme in PBS buffer, followed by 100 μg boosts in PBS buffer on days 7, 14, 21 and 28; (iv) initial immunization with 20 μg enzyme in PBS buffer, followed by 20 μg boosts in PBS buffer on days 7, 14, 21 and 28. Serum IgG antibody titers against wild-type LST were measured on days 13, 20, 27, 34, and 62. […] Mice were housed without further manipulation until week 23 of the study, at which time serum IgG antibody titers were again measured and mice were divided into two experimental arms having equivalent average antibody titers. Note that during the week 9 to week 23 recovery period, two mice (the lowest titer 100 μg no adjuvant and one of the high titer 100 μg adjuvant) began suffering hair loss, weight loss, and reduced mobility and were sacrificed as per the IACUC approved protocol. […]

S. aureus cells = assay: Lytic assay using purified protein (SYTOX kinetic assay); assay type: cell-based, Staphylococcus aureus
Experimental: S. aureus cells were grown either to mid-log or to saturation in tryptic soy broth (TSB) at 37° C. with shaking. The cells were harvested by centrifugation and washed once in phosphate buffered saline (PBS: 2.7 mM KCl, 1.5 mM KH2PO4, 8.9 mM Na2HPO4, 136.9 mM NaCl, pH 7.4). The assay was performed in 96-well, black, clear bottom plates from Greiner Bio-One (Monroe, N.C.). The final (250 μl) reaction was composed of 10 μl of P. pastoris culture supernatant, S. aureus cells at OD600=1.5, and 5 μM SYTOX Green (Thermo Fisher Scientific; Waltham, Mass.), all in PBS. Data were collected using SPECTRAMAX GEMINI Fluorescence Microplate Reader (Molecular Devices; Sunnyvale, Calif.) using an excitation/emission of 504/523 nm, and rates were determined from the slope of the steepest linear portion of the trace. Each assay was performed with 500 ng of commercially-sourced lysostaphin (ssLys) as an internal control.
The activity of purified lysostaphin variants was examined using the SYTOX kinetic assay as previously described in Chapter 2, Section 3.2.6. 200 ng of purified enzyme (instead of culture supernatant) was used in each reaction.

| Molecule | MIC activity relative to wild-type LST (MRSA strain USA400 [1]) [%] | survival rate (MRSA strain USA400 [2]) | survival (MRSA strain USA400 [3]) | retained original MIC activity after heating (MRSA strain USA400 [1]; 50° C. for 1 hour prior to assay) [%] | fold lower antibody titers compared to wild-type LST [4] | MIC Strain 6445 (S. aureus 6445) [µg/mL] | reduced proliferative response relative to wild-type group (pooled splenocytes [5]) [%] | MIC Strain 3425-1 (S. aureus 3425-1) [µg/mL] | MIC Strain 3425-3 (MRSA strain 3425-3) [µg/mL] | MIC (S. aureus SA113; S. aureus SA113, purified enzyme) [µg/mL] | MIC Strain SA113 (S. aureus SA113; biological duplicates) [µg/mL] | Tm ([6]; SYPRO Orange, PBS) [°C] | Tm ([6]; biological duplicates) [°C] | proliferation of pooled splenocytes (pooled splenocytes [7]) | % Wild-Type Activity (S. aureus cells; 200 ng purified enzyme) [%] | % WT Lytic Rate (S. aureus cells; biological duplicates) [%] |
| --- | --- | --- | --- | --- | --- | --- | --- | --- | --- | --- | --- | --- | --- | --- | --- | --- |
| B1 | 12.5 | 1/3 | – | – | – | – | – | – | – | – | – | – | – | – | – | – |
| B2 | 12.5 | – | survived | 25 | more than 200 fold | – | – | – | – | – | – | – | – | – | – | – |
| B3 | – | – | – | – | – | 0.06 | 50 | 0.11 | 0.05 | 0.1042 | 0.02 | 55.7 | 55.8 | at or below background levels | 61 | 70 ± 30 |

Reference: patent US11091749B2, “Deimmunized lysostaphin and methods of use” (TRUSTEES OF DARTMOUTH COLLEGE, priority 2014, dated 2021)
